One data set addresses UVR8^R286A (Arabidopsis) (UniProt Q9FN03). Nature of the data set: SEC.
In a further data set the target is UVR8^R146A (Arabidopsis) (UniProt Q9FN03). The data set can be described thus: SEC. In general terms: In gel filtration, larger molecules generally elute earlier.
Data set [1] deals with T1, UVR8 (UV … LOCUS 8), recombinant Arabidopsis, full-length wild type (Arabidopsis), Q9FN03.
T1 chain: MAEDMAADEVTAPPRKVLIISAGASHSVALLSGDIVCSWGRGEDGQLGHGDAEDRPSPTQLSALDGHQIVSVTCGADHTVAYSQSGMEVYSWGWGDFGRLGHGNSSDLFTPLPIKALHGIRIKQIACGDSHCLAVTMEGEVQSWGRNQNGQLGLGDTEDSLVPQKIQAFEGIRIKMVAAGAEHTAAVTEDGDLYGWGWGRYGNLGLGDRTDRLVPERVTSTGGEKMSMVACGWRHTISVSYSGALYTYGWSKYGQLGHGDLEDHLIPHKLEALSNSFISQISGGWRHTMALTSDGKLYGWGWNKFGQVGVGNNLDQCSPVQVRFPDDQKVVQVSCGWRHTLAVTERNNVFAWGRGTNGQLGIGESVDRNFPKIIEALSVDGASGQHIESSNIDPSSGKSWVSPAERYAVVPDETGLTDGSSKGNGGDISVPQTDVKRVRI
The data set can be described thus: SAXS. The conditions noted are these: remark: other sources report otherwise.

Data set [2] has as its target T1, UVR8 (UV … LOCUS 8), recombinant …. The data set can be described thus: SDS-PAGE without sample boiling. The conditions noted are these: remark: other sources report otherwise.
Data set [3] shares this target. The data set can be described thus: SEC. As to conditions: remark: other sources report otherwise.
For data set [4] the target is unchanged. The data set can be described thus: SEC-MALS. The conditions noted are these: remark: other sources report otherwise.
In data set [5] the target is T2, UVR8^W233F (Arabidopsis), Q9FN03.
T2 chain: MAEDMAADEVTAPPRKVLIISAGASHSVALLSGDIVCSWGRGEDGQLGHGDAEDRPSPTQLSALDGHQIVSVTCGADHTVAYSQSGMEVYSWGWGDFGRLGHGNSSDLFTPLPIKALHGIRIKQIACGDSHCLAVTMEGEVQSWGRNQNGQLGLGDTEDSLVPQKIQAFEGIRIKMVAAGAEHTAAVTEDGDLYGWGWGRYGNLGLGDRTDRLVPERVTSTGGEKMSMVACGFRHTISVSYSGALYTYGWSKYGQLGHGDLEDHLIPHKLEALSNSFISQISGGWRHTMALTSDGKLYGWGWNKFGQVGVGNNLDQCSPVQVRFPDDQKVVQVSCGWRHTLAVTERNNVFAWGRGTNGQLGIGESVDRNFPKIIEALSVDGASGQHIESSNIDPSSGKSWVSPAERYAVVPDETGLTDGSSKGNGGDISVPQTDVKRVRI
The data set can be described thus: SEC. As to conditions: remark: other sources report otherwise.

Data set [6] shares this target. The data set can be described thus: SEC. The conditions noted are these: remark: other sources report otherwise.
Data set [7] addresses T3, UVR8^W285A (Arabidopsis), Q9FN03.
T3 chain: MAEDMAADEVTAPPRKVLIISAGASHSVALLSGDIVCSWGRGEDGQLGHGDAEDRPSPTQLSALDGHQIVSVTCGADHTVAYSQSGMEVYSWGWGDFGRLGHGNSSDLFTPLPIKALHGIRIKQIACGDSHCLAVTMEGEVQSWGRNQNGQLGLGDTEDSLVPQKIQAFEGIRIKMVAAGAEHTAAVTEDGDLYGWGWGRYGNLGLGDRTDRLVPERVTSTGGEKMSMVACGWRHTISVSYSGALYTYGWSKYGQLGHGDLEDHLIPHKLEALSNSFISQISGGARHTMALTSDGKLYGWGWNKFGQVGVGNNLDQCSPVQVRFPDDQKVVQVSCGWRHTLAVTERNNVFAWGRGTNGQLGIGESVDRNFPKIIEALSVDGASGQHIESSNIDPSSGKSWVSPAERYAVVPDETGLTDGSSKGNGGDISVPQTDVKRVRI
The data set can be described thus: SAXS. As to conditions: remark: other sources report otherwise.

The data set “SEC” concerns the molecule itself. The data set can be described thus: SEC.
The data set “SAXS” concerns the molecule itself. Nature of the data set: SAXS.

In general, stoichiometry N refers to a count of units in the complex or per binding partner.

Regarding “UVR8^R286A (from UniProt Q9FN03 1-440) (natural protein)”, in the data set with UVR8^R286A (Arabidopsis), the stoichiometry N came to 2.
Take “UVR8^R146A (from UniProt Q9FN03 1-440) (natural protein)”: in the data set with UVR8^R146A (Arabidopsis), the stoichiometry N came to 2.

B1: UVR8 (UV … LOCUS 8), recombinant Arabidopsis, full-length wild type, Q9FN03 1-440 (natural protein)
chain: MAEDMAADEVTAPPRKVLIISAGASHSVALLSGDIVCSWGRGEDGQLGHGDAEDRPSPTQLSALDGHQIVSVTCGADHTVAYSQSGMEVYSWGWGDFGRLGHGNSSDLFTPLPIKALHGIRIKQIACGDSHCLAVTMEGEVQSWGRNQNGQLGLGDTEDSLVPQKIQAFEGIRIKMVAAGAEHTAAVTEDGDLYGWGWGRYGNLGLGDRTDRLVPERVTSTGGEKMSMVACGWRHTISVSYSGALYTYGWSKYGQLGHGDLEDHLIPHKLEALSNSFISQISGGWRHTMALTSDGKLYGWGWNKFGQVGVGNNLDQCSPVQVRFPDDQKVVQVSCGWRHTLAVTERNNVFAWGRGTNGQLGIGESVDRNFPKIIEALSVDGASGQHIESSNIDPSSGKSWVSPAERYAVVPDETGLTDGSSKGNGGDISVPQTDVKRVRI
As for B1, the stoichiometry N in [1], in data set [2], in [3] and in data set [4] was 2 throughout.

B2: UVR8^W233F, Q9FN03 1-440 (natural protein)
chain: MAEDMAADEVTAPPRKVLIISAGASHSVALLSGDIVCSWGRGEDGQLGHGDAEDRPSPTQLSALDGHQIVSVTCGADHTVAYSQSGMEVYSWGWGDFGRLGHGNSSDLFTPLPIKALHGIRIKQIACGDSHCLAVTMEGEVQSWGRNQNGQLGLGDTEDSLVPQKIQAFEGIRIKMVAAGAEHTAAVTEDGDLYGWGWGRYGNLGLGDRTDRLVPERVTSTGGEKMSMVACGFRHTISVSYSGALYTYGWSKYGQLGHGDLEDHLIPHKLEALSNSFISQISGGWRHTMALTSDGKLYGWGWNKFGQVGVGNNLDQCSPVQVRFPDDQKVVQVSCGWRHTLAVTERNNVFAWGRGTNGQLGIGESVDRNFPKIIEALSVDGASGQHIESSNIDPSSGKSWVSPAERYAVVPDETGLTDGSSKGNGGDISVPQTDVKRVRI
With B2, the stoichiometry N in data set [5] and in [6] was 2 throughout.

B3: UVR8^W285A, Q9FN03 1-440 (natural protein)
chain: MAEDMAADEVTAPPRKVLIISAGASHSVALLSGDIVCSWGRGEDGQLGHGDAEDRPSPTQLSALDGHQIVSVTCGADHTVAYSQSGMEVYSWGWGDFGRLGHGNSSDLFTPLPIKALHGIRIKQIACGDSHCLAVTMEGEVQSWGRNQNGQLGLGDTEDSLVPQKIQAFEGIRIKMVAAGAEHTAAVTEDGDLYGWGWGRYGNLGLGDRTDRLVPERVTSTGGEKMSMVACGWRHTISVSYSGALYTYGWSKYGQLGHGDLEDHLIPHKLEALSNSFISQISGGARHTMALTSDGKLYGWGWNKFGQVGVGNNLDQCSPVQVRFPDDQKVVQVSCGWRHTLAVTERNNVFAWGRGTNGQLGIGESVDRNFPKIIEALSVDGASGQHIESSNIDPSSGKSWVSPAERYAVVPDETGLTDGSSKGNGGDISVPQTDVKRVRI
B3 showed a stoichiometry N in data set [7] of 2.

B4: UVR8^W285F (natural protein, Arabidopsis, UniProt Q9FN03 1-440, looked up)
chain: MAEDMAADEVTAPPRKVLIISAGASHSVALLSGDIVCSWGRGEDGQLGHGDAEDRPSPTQLSALDGHQIVSVTCGADHTVAYSQSGMEVYSWGWGDFGRLGHGNSSDLFTPLPIKALHGIRIKQIACGDSHCLAVTMEGEVQSWGRNQNGQLGLGDTEDSLVPQKIQAFEGIRIKMVAAGAEHTAAVTEDGDLYGWGWGRYGNLGLGDRTDRLVPERVTSTGGEKMSMVACGWRHTISVSYSGALYTYGWSKYGQLGHGDLEDHLIPHKLEALSNSFISQISGGFRHTMALTSDGKLYGWGWNKFGQVGVGNNLDQCSPVQVRFPDDQKVVQVSCGWRHTLAVTERNNVFAWGRGTNGQLGIGESVDRNFPKIIEALSVDGASGQHIESSNIDPSSGKSWVSPAERYAVVPDETGLTDGSSKGNGGDISVPQTDVKRVRI
For the molecule B4, the “stoichiometry N” value in “SEC” was 2.

B5: trypsin-treated UVR8 (crystallographic construct) (domain or fragment, Arabidopsis)
chain: MAEDMAADEVTAPPRKVLIISAGASHSVALLSGDIVCSWGRGEDGQLGHGDAEDRPSPTQLSALDGHQIVSVTCGADHTVAYSQSGMEVYSWGWGDFGRLGHGNSSDLFTPLPIKALHGIRIKQIACGDSHCLAVTMEGEVQSWGRNQNGQLGLGDTEDSLVPQKIQAFEGIRIKMVAAGAEHTAAVTEDGDLYGWGWGRYGNLGLGDRTDRLVPERVTSTGGEKMSMVACGWRHTISVSYSGALYTYGWSKYGQLGHGDLEDHLIPHKLEALSNSFISQISGGWRHTMALTSDGKLYGWGWNKFGQVGVGNNLDQCSPVQVRFPDDQKVVQVSCGWRHTLAVTERNNVFAWGRGTNGQLGIGESVDRNFPKIIEALSVDGASGQHIESSNIDPSSGKSWVSPAE
On to B5, for which the “stoichiometry N” value in the data set “SAXS” stood at 2.
